Blank lines part the entries; values can stand above or below the substance they belong to.
Assays:
[1] = biological target: S-layer isolated from S. acidocaldarius strain MW001 (WT) (S. acidocaldarius (endogenous in MW001)) (UniProt Q4J6E5); assay: co-sedimentation
[2] = biological target: sFlaF (soluble FlaF, Δ34FlaF, residues 35-164 with an N-terminal His-tag) (S. acidocaldarius); assay: SAXS
[3] = biological target: sFlaF-L101Y (S. acidocaldarius); assay: SEC
[4] = biological target: sFlaF-R161A (S. acidocaldarius); assay: SEC

percent bound [1]: 50% | stoichiometry N [2]: 2
Substance: sFlaF (soluble FlaF, Δ34FlaF, residues 35-164 with an N-terminal His-tag) (domain or fragment)

stoichiometry N [3]: 2
Substance: sFlaF-L101Y (domain or fragment)

stoichiometry N [4]: 2
Substance: sFlaF-R161A (domain or fragment)

Reference: paper PMC4425475
